The data set deals with the molecule itself. Briefly: crystal structure.

B1: LnmK (Tyr62Phe) (enzyme, Streptomyces atroolivaceus S-140, UniProt Q8GGP1 2-319, looked up)
chain: SITSSLDVRPEIKQAVTVRPGMCGPGSLFVGQLGDWTWETVSAQCDTDVFAARDASGNPTFLAFYYFRVRGGRELHPGSLTFGDRLTVTSGCYDQGTESVLTLHRIDRAGSDDAQRPLDLHEFYERPRDGSLYVENFNRWVTRSAPGSNEDLVKSSPPGFRNDGLPQLPAAYSPRAVYREARTAHTFRALDEPGFRLLPDTVEVEHPVDIVRDVNGVGLLYFASYFSMVDKAALALWRRLGRSDRAFLRRVVVDQQMCYLGNADLDSVLTLGARVRVSTETPGEELVDVVISDRDSGRVIAVSTLHTQHDAHDPKGEA
As for B1, the binding result is “binds”.
